{"source": "patent US20110020786A1", "about": "(BAYLOR COLLEGE OF MEDICINE, published 2011)", "key": {"[1]": {"target": "T1, Norwalk virus-like particles (genogroup I) (Norwalk virus (genogroup I Norovirus), UniProt Q83884 1-530)", "T1 construct": "also called NV; NVLPs", "T1 sequence": "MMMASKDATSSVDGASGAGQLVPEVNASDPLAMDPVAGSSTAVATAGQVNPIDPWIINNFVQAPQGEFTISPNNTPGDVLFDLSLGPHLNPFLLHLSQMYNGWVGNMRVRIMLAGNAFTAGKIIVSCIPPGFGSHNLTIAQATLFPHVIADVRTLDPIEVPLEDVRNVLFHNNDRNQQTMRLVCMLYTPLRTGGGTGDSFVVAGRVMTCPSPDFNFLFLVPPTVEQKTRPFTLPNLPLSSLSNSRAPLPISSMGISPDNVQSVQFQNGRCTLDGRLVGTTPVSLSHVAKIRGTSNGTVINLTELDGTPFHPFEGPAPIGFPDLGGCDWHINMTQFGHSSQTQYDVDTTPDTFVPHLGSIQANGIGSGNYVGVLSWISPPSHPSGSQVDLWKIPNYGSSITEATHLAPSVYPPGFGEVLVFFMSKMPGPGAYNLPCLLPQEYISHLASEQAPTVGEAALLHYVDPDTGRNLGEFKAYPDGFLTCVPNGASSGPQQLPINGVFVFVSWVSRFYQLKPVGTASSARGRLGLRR", "assay": "ELISA: dendrimer coated, VLPs added, detection with MAb3912 and goat anti-mouse-HRP, ABTS at 405 nm"}, "[2]": {"target": "T2, Grimsby virus-like particles (genogroup II) (Norovirus genogroup II, Grimsby strain)", "T2 construct": "Recombinant VLP; also called GRV", "assay": "SPR (BIAcore), VLPs immobilized, dendrimer injected"}, "[3]": {"target": "T3, Snow Mountain virus-like particles (genogroup II) (Norovirus genogroup II, Snow Mountain …)", "T3 construct": "Recombinant VLP; also called SMV", "assay": "SPR (BIAcore), VLPs immobilized, dendrimer injected"}, "[4]": {"target": "T4, Houston virus-like particles (genogroup II) (Norovirus genogroup II, Houston strain)", "T4 construct": "Recombinant VLP; also called HOV", "assay": "SPR (BIAcore), VLPs immobilized, dendrimer injected"}, "[5]": {"target": "T1, Norwalk virus-like particles (genogroup …)", "assay": "SPR (BIAcore), VLPs immobilized, dendrimer injected"}, "[6]": {"target": "T1, Norwalk virus-like particles (genogroup …)", "assay": "ELISA: dendrimer coated at 0.4 mg/mL (32 µM), VLPs added at 2 µg/mL, detection with MAb3912 and goat anti-mouse-HRP, ABTS at 405 nm"}}, "note": "Ends that are not written are not given here.", "data": [{"binder": "SREPQYGGPAAD (also called nonspecific octovalent dendrimer)", "note": "[SREPQYGGPAAD8 (the octovalent dendrimer of SEQ ID NO: 5)]", "values": [{"measurement": "binding result", "setting": "[1]", "value": "no binding"}]}, {"binder": "AHFQTHTVPLSL (also: octovalent MAP dendrimer, eight copies on branching lysine core, Octovalent peptide dendrimer (MAP))", "note": "[AHFQTHTVPLSL8 (the octovalent dendrimer of SEQ ID NO: 2)]", "values": [{"measurement": "equilibrium average response", "setting": "[2]", "value": 6380, "unit": "RU"}, {"measurement": "equilibrium average response", "setting": "[3]", "value": 6430, "unit": "RU"}, {"measurement": "equilibrium average response", "setting": "[4]", "value": 6710, "unit": "RU"}, {"measurement": "equilibrium average response", "setting": "[5]", "value": 6750, "unit": "RU"}]}, {"binder": "RHFQTHTVPLSL (also: octovalent MAP dendrimer, eight copies on branching lysine core, Octovalent peptide dendrimer (MAP))", "note": "[RHFQTHTVPLSL8 (the octovalent dendrimer of SEQ ID NO: 1)]", "values": [{"measurement": "binding result", "setting": "[6]", "value": "binds"}]}]}
